Where no end group is shown, it is not given here. [ ]: non-standard residue; d: D form. NMeA = CN[C@@H](C)C(=O)O
Tests used:
[1] = molecular target: BIR2 domain of XIAP (Artificial Sequence); assay: DELFIA displacement assay on XIAP BIR2
[2] = molecular target: BIR3 domain of XIAP (human, residues 253-347, N-terminal His tag) (human); assay: ITC
[3] = molecular target: BIR3 domain of XIAP (human, residues 253-347, N-terminal His tag) (human); assay: ITC, difference to N-Me-AVPF-NH2
[4] = molecular target: recombinant BIR3 domain of cIAP2 with N-terminal 6xHis tag (Artificial Sequence); assay: DELFIA displacement, 2-h incubation
[5] = molecular target: recombinant BIR3 domain of cIAP1 with N-terminal 6xHis tag (Artificial Sequence); assay: DELFIA displacement, 2-h incubation
[6] = molecular target: BIR3 domain of XIAP (human, residues 253-347, N-terminal His tag) (human); assay: DELFIA displacement of AVPI-Biotin
[7] = molecular target: BIR3 domain of XIAP (human, residues 253-347, N-terminal His tag) (human); assay: DELFIA displacement, 2-h incubation
[8] = molecular target: BIR3 domain of XIAP (human, residues 253-347, N-terminal His tag) (human); assay: ITC, full curve titration
[9] = molecular target: recombinant BIR3 domain of cIAP2 with N-terminal 6xHis tag (Artificial Sequence); assay: DELFIA displacement of AVPI-Biotin
[10] = molecular target: recombinant BIR3 domain of cIAP1 with N-terminal 6xHis tag (Artificial Sequence); assay: DELFIA displacement of AVPI-Biotin
[11] = molecular target: recombinant BIR3 domain of cIAP2 with N-terminal 6xHis tag (Artificial Sequence); assay: DELFIA displacement of AVPI-Biotin; remark: listed apart in the source
Target sequence in this assay (chain, as listed by the source limits assumed): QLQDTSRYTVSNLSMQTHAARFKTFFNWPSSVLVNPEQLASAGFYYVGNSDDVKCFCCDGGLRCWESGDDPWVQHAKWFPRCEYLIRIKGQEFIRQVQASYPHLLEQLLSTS

[12] = molecular target: BIR3 domain of XIAP (human, residues 253-347, N-terminal His tag) (human); assay: DELFIA displacement of AVPI-Biotin; remark: listed apart in the source
Target sequence in this assay (chain, as listed by the source): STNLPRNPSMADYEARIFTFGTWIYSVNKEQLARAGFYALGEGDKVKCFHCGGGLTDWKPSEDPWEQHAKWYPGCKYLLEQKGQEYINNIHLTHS

[13] = molecular target: recombinant BIR3 domain of cIAP1 with N-terminal 6xHis tag (Artificial Sequence); assay: DELFIA displacement of AVPI-Biotin; remark: listed apart in the source
Target sequence in this assay (chain, as listed by the source limits assumed): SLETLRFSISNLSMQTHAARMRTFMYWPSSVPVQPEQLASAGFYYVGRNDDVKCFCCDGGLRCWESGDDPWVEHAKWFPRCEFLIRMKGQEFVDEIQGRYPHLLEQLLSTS

Molecule	-TΔS [2] [kcal/mol]	Kd [2] [nM]	ΔH [2] [kcal/mol]	δ(-TΔS) [3] [kcal/mol]	δ(ΔH) [3] [kcal/mol]	further results
NMe-Ala-pSFB-Dap-Pro-Phe-NH2 (peptide)						IC50 [1]: 2220 nM
compound 3 (N-Me-Ala-P2-Pro-Phe-NH2, P2 = (4-NO2)-Phe) (peptide)	-0.1	280	-8.9	0.9	-1.1	
MeHN-A-Dap(p-OSO2F-Benzamide)-P-F-CONH2 (peptide)						IC50 [4]: > 1000 nM; IC50 [5]: 335 nM
N-Me-Ala-(p-phosphonomethyl)Phe-Pro-Phe-NH2 (peptide)				4	-4.4	IC50 [6]: 35 nM
MeHN-A-Dap(4-FSBz)-P-F-CONH2 (peptide)						IC50 [4]: 85.7 nM; IC50 [7]: 17.1 nM; IC50 [5]: 18.6 nM
AVPI (peptide)	-4	825				ΔH [8]: -4.3 kcal/mol; IC50 [9]: 320 nM; IC50 [6]: 957 nM; ΔG [2]: -8.3 kcal/mol
compound 13 (N-Me-Ala-P2-Pro-Phe-NH2, P2 = (p-guanidino)Phe) (peptide)	-2.3	182	-6.9	-1.3	0.9	
MeNH-A-hF(OSO2F)-P-F-CONH2 (peptide)						IC50 [4]: 188 nM; IC50 [7]: 197 nM; IC50 [5]: 26 nM
MeNH-A-Dap(4-VSB)P-F-CONH2 (peptide)						IC50 [4]: 1.3 nM; IC50 [7]: 31 nM; IC50 [5]: 4.3 nM
compound 7 (N-Me-Ala-P2-Pro-Phe-NH2, P2 = (3Cl-5CF3)Phe) (peptide)	-1.3	133	-8	-0.3	-0.2	
compound 6 (N-Me-Ala-P2-Pro-Phe-NH2, P2 = (3F-4CF3)Phe) (peptide)	-1.2	155	-8.1	-0.2	-0.3	
compound 2 (N-Me-Ala-P2-Pro-Phe-NH2, P2 = (4SO3^-)-Phe) (peptide)				0	-0.5	IC50 [10]: 144 nM
MeHN-A-F(OSO2F)-P-F-CONH2 (peptide)						IC50 [4]: 343 nM
compound 12 (N-Me-Ala-P2-Pro-Phe-NH2, P2 = (4-OCF3)Phe) (peptide)	-1.9	227	-7.1	-0.9	0.7	
compound 5 (N-Me-Ala-P2-Pro-Phe-NH2, P2 = (3Cl-4CF3)Phe) (peptide)	-0.9	190	-8.3	0.1	-0.5	
compound 11 (N-Me-Ala-P2-Pro-Phe-NH2, P2 = Phe(4-CF3)) (peptide)	-1.9	213	-7.2	-0.9	0.6	
compound 9 (N-Me-Ala-P2-Pro-Phe-NH2, P2 = Dab) (peptide)	-1.4	230	-7.7	-0.4	0.1	
MeHN-A-Dap(3-FSB)-P-F-NH2 (peptide)						IC50 [6]: 47.3 nM
compound 8 (N-Me-Ala-P2-Pro-Phe-NH2, P2 = Cyclohexyl Glycine) (peptide)	-1.4	354	-7.8	-0.4	0	
compound 14 (N-Me-Ala-P2-Pro-Phe-NH2, P2 = (2F-4CF3-5Me)Phe) (peptide)	-3.3	81	-6.4	-2.3	1.4	
compound 10 (N-Me-Ala-P2-Pro-Phe-NH2, P2 = (2F-4CF3)Phe) (peptide)	-1.8	194	-7.4	-0.8	0.4	
Ala-pTyr-Pro-(4F)Phe-NH2 (peptide)	3.04	205				ΔH [8]: -12.2 kcal/mol; IC50 [9]: 143 nM; IC50 [6]: 40.1 nM; IC50 [10]: 124 nM; ΔG [2]: -9.13 kcal/mol
AVPF		175				ΔH [8]: -7.64 kcal/mol; IC50 [11]: 168 nM; IC50 [12]: 60 nM; IC50 [13]: 50.9 nM
[NMeA]VPF-NH2 [N-Me-AVPF-NH2]	-1		-7.8			

From US20200345804A1
